# How the values were obtained:
# [1] = target: soluble fusion protein consisting of the extracellular domain of human FcγRI and human IgM heavy chain (sFcγRI-µ) (human) (UniProt P12314); assay: ELISA on captured FcγRI/IgM heavy chain fusion protein, in excess human IgG1
# [2] = target: soluble fusion protein consisting of the extracellular domain of human FcγRI and human IgM heavy chain (sFcγRI-µ) (human) (UniProt P12314); assay: ELISA on captured FcγRI/IgM heavy chain fusion protein, against a nonspecific human IgG1
# [3] = target: human FcγRI (CD64) on cells (human) (UniProt P12314); assay: cell-based or functional assay
# [4] = target: human FcγRI (CD64) on cells (human) (UniProt P12314); assay: flow cytometry, fluorescein-conjugated antibody on peripheral blood monocytes
# Target sequence in this assay (P12314 16-374): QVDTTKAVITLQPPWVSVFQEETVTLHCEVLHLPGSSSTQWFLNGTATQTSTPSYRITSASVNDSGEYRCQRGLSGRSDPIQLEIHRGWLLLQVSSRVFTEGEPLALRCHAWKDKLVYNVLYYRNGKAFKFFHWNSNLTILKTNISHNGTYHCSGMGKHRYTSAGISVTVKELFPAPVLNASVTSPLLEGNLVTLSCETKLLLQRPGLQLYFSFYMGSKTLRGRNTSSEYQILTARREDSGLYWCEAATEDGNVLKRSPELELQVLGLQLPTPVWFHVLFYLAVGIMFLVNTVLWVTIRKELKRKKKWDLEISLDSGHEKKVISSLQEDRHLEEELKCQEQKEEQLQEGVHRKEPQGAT
# Sequence of soluble fusion protein consisting of the extracellular domain of human FcγRI and human IgM heavy chain (sFcγRI-µ) (human) (P12314 other isoform, or with tags, fused parts or gaps limits assumed): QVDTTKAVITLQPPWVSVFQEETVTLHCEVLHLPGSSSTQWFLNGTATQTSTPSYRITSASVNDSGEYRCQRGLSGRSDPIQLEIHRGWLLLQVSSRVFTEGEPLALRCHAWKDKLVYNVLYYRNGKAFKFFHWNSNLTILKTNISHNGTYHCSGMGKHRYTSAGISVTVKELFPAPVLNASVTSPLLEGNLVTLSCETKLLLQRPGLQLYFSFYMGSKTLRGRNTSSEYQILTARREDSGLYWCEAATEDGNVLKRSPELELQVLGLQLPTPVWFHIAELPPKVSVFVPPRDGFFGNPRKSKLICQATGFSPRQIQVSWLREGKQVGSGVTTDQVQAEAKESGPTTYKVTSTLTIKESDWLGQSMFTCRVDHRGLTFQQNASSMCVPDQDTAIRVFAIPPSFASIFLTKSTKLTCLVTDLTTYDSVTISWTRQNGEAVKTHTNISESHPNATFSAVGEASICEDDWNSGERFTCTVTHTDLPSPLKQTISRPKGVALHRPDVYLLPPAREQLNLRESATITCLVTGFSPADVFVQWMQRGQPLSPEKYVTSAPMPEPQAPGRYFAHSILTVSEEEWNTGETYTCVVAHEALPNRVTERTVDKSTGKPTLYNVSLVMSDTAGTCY
substance,measurement,setting,value
NEWM VH/REI Vκ humanized mAb 22 (antibody),fold lower affinity than the chimeric mAb,[1],5 fold
same,percent of binding via the Fv portion,[2],> 95%
TsAb m22 Fab′x32.2 Fab′xm22 Fab′,FcγRI expression on monocytes in whole blood (modulation assay) (% of the level prior to BsAb treatment),[3],50
chemically linked M22 Fab′ multimer M22 F(ab′)3+,human CD64 surface expression on macrophages of human CD64-transgenic mice,[3],< 50 % reduction
murine anti-FcγRI monoclonal antibody M22,Antibody sites per cell (antibody sites per cell),[4],10000
